Reference: the DeepSol protein solubility set

Test: soluble on expression in E. coli; label from the status in PepcDB or PDB records

| Sequence | soluble on expression in E. coli |
| --- | --- |
| SLSPAPTTMDFTPAPLEDTSSRPQFCKWPCECPPSPPRCPLGVSLITDGCECCKMCAQQLGDNCTEAAICDPHRGLYCDYSGDRPRYAIGVCAQVVGVGCVLDGVRYNNGQSFQPNCKYNCTCIDGAVGCTPLCLRVRPPRLWCPHPRRVSIPGHCCEQWVCEDDAKRPRKTAPRDTGAFDAVGEG | soluble |
| MDQAELSIEQVLKRDIPWETYMNTKLVSAKGLQLLRRYDKKPESARAQLLDEDGPAYVHLFVSILRDIFKEETVEYVLALIYEMLSANPTRARLFHDESLANEDTYEPFLRLLWKGNWFIQEKSCKILAWIISARPKAGNAVIGNGIDDVLKGLVEWLCAQLKQPSHPTRGVPIAISCLSSLLKEPVVRSSFVQADGVKLLVPLISPASTQQSIQLLYETCLCIWLLSYYEPAIEYLATSRTMQRLTEVVKHSTKEKVVRVVILTFRNLLPKGTFGAQMVDLGLPHIIHSLKTQAWSDEDLLDALNQLEEGLKDKIKKLSSFDKYKQEVLLGHLDWNPMHKETNFWRENVTCFEENDFQILRVLLTILDTSSDPRSLAVACFDISQFIQYHAAGRVIVADLKAKERVMKLINHENAEVTKNAILCIQRLLLGAKYASFLQA | soluble |
| MFMEVSLTSLPAHVMNALDAIWEGSIADSLESETLEFKEDPSCAGRGKQHGNPQAALIEKLIDEAVCLANGDAGTGHIVVGIKDKIGGPEAFTGTTFDTEKIAKKIFDGTRPNLRPEVHEVRYQNNRLIVIYIPEALSLYSRSKGQTSKRVGSHCEPLSEEQRRAIAATRAHADYSNGISEFNVDDIAADTIQEVRRLLKTKRAQSGIDTSLPTTTNGLLRELGLIDNYGALKRAGAILLLPAPEGQLSIRHFWRSFPGIDPEVTDYNQPLLIALSSLKRRITENANKEIKRIQFSDGQEIAVSAFPQTAVDEVVTNAIIHRDWRLSRPVVIDQSPQTLKVWSPGSLPVGVTPNRLLTTQSIPRNSRLMSAMRMLGLAEESSRGFDRIWAALLGSGRDIPDVHTEDTFVEVILHSGNPDESFIKALHELSLSFNPDMLHSVNTLIVLWHLWTSPVISLKQARVKTQTSSKEATELMFALESNGLLTQIHNTDEWFLSEKARKTTNYYQSETIPQSSVQTWVEEKLSSGSPISAAEIAESIGMPRPEITEILRNLRRAGKAHIDPSGPQRGSGTRWIKGT | not soluble |
| AIAHAASFRDCKAWQSDGLPLSSSSNEACKLYDAILSQYVTWRNDETLGGIEGCITSIKAADPDFVMGHVISTGLELVGTGSSVLRDERLASAVRRTVELADTQQLTSREKNHVKAVQLFSKGSVHRNLTFMFNG | soluble |
| MSLGTPSEPTSTLESDIFDDLSLYYLEDVFLSATTPSPTFDLSDPSDPSLSDSFDSEWSPMTPCSIERPETSTSSIFSFEARPIKTPPPAEYLRLPTFLSTNNSGFFDSVVASDFNLYGKFNDWLNDSKPRSGSFAIESAEELARNPRETRSEPEVPSLFKRREYGCGYCRSVGYMRWETHTRKKCDKLSSLAPCKICGARGEMNHTETYCPMKPSSQLFFNEDFSRDFENRRFQRSRYQFYKHSSLIQKIYASSEDSF | not soluble |
| MGSDKIHHHHHHMLLEKLNWRYAAKKMDPAKVVSEDKVERIVEAARLAPTSSGLQPFEIIVVTNAEVREKIKAIGWNQSPITDGSHLLVFAAWDNYTAERINHMFDLVNEVRGFRNEGWENYRQMLLSAYPQRDPETNFEHAARQAYIAFGLALAQAAFEGVDATPMEGFDPKALDEILGLRERGLRSVTIAPLGYRQVEGDWLVNLQKVRRPRDQFVTEVK | not soluble |
| MAHHHHHHMESNNHTTDLPSHAPGVEAAPIAAATPPLTGLAEGAVVTEGASHPKMAAAEPSEATATESPPSPHSTGEAKTQNALAALMSVLDNDEAARRGGTSLRSLQKMCMRVPQLSTELTRPQRFQLYCLLLLEDGDDPAVPGGAAGQEDWTTYTKQALETHVHMAKQAAALFPPPSTSPPTNSPASSTAWAPMRPFTSIRQ | soluble |
| MEKRNEEHSRKKFIEEQLNALKHEERVLNETRTKLQQQKWHLLQENDKIKEKIRVRDAAAGAGTGTGAPPE | not soluble |
| MGSSHHHHHHSSGLVPRGSHMDFYKLDEKLKELKRKRVDVSIKSRKLADREIQEVSANRKPRVYSMEDVNDADESVGDTESPEKEKAFHYTVQEYDAWERRHPQGKTGQSQRGGISYDQLAKLSYEKTLRNLATQTQNSSKQDSSADEEDNKNVPKKGRIGKVQKDTKTGKITIADDDKLVNKLAVSLQSESKKRYEARKRQMQNAKTLYGVESFINDKNKQFNEKLSRESKGSE | soluble |
| MGSDKIHHHHHHMVTYAGKLVLAPMVRAGELPTRLMALAHGADLVWSPEIIDKKLIQCVRKENTALQTVDYVVPSKVQTRPETLVFRTYPKLESSKLIFQIGSASPALATQAALKVINDVSGIDINAGCPKHFSIHSGMGSALLRTPDTLCLILKELVKNVGNPHSKPISVKIRLLDTKQDTLQLVKRLCATGITNLTVHCRKTEMRNREQPITDYIAEIYEICQANNVSLIVNGAIRDRSHFHDLQANHWKNTNIGGMIAECAERDPTVFDHTSKPSEDGPSWVVACREFIQWATKFDNHIGNTKYMLSRIVPGKSVFFQYFARCKSPEEVSFVLKQLNDDGSAQTDPSEYLENCRAQEKALKNANAIAKQKRKQTDHIGSDTKKQKVVPLPTDI | not soluble |
| MSLHPVQHSAREQVNAQVLSAASQKIESLAQQRQWHDYRYTFKVYISSQIATAAPCATTPGVTLTSPVDIALNRMNFTVSCPQSWQMNVAVRPDVLVPVVMAKSLVARDTPLTANDVELKPYNVSAQRREVLMELDDAIGLSSKHALQPGKPITKEELVSPVLVGRDQPVMIVYQSAGITASMPGVALKNGRKGEMVKVRNASSQRVISAMVAESGVVTTVGAEEGHHHHHH | soluble |
| MGSDKIHHHHHHMIIAGAVPIKGMELIKGPVKLNKDTFEIKNKELPISMGTCALLGAAFKTLEYFGKEDELTFITAGDVGEGDGSLEIYEELHEINDDLTIIHYIKPKISEIIKVDFSKNVIGDAGGMYAGKAAGIGNKFHMFFPDVGELAFLADENSSHPAYVRGFISEIDDQEIPKLIKMAYTQKMPKNMVVKGSKDHIVNEGNIIETVEYPKFEAMECIGGTGDTLTGIASSLIACGFKTEKAGILGCKLNRKLGELVKPRPDTQIYEIIQKIPEALKEFDL | not soluble |
| MGSDKIHHHHHHMTNSIMALPSSIRHYRRKQMAINQVAQTPAISPLTIKERTGSISTAEMISVLKGETTALHIKQAFSTEVAEEITTNFLGSPGLKERKDGVPGQYVGASHYRKDAATYFAESETARPHVDALFENLVDPVRGSFDALKRELHKQGIELRLARSEHGHANVCRALSWSGSGTFSLDPHDDVAQVLSAGNDYELSAVAHNTVAALNFYPSMPEEGGNLRLWSHKPTVADRKSQGVETTGYPYSSAYLEAVPCREFQLKPGDIALIDGGFVHGVTGQSGNGKRRLVLNSFFGFARPDLVLWWT | not soluble |
| SYTLPSLPYAYDALEPHFDKQTMEIHHTKHHQTYVNNANAALESLPEFANLPVEELITKLDQLPADKKTVLRNNAGGHANHSLFWKGLKKGTTLQGDLKAAIERDFGSVDNFKAEFEKAAASRFGSGWAWLVLKGDKLAVVSTANHDSPLMGEAISGASGFPIMGLDVWEHAYYLKFQNRRPDYIKEFWNVVNWDEAAARFAAKK | soluble |
| CDQFVTDALKTFENTYLNDHLPHDIHKNVMRMVNHEVSSFGVVTSAEDSYLGAVDENTLEQATWSFLKDLKRITDSDLKGELFIKELLWMLRHQKDIFNNLARQFQKEVLCPNKCGVMSQTLIWCLKCEKQLHICRKSLDCGERHIEVHRSEDLVLDCLLS | not soluble |
| MAMLELLYTALLYLIQPLIWIRLWVRGRKAPAYRKRWGERYGFYRHPLKPGGIMLHSVSVGETLAAIPLVRALRHRYPDLPITVTTMTPTGSERVQSAFGKDVQHVYLPYDLPDALNRFLNKVDPKLVLIMETELWPNLIAALHKRKIPLVIANARLSARSAAGYAKLGKFVRRLLRRITLIAAQNEEDGARFVALGAKNNQVTVTGSLKFDISVTPQLAAKAVTLRRQWAPHRPVWIATSTHEGEESVVIAAHQALLQQFPNLLLILVPRHPERFPDAINLVRQAGLSYITRSSGEVPSTSTQVVVGDTMGELMLLYGIADLAFVGGSLVERGGHNPLEAAAHAIPVLMGPHTFNFKDICARLEQASGLITVTDATTLAKEVSSLLTDAVYRSFYGRHAVEVLYQNQGALQRLLQLLEPYLPPKTHLEHHHHHH | not soluble |
| MTQCYAEITGWGKCLPPATLSNHDLSTFLDTSDEWIQSRTGIEQRRISHVNTSDLATVAAQHAIACAGVSVEEIDLIIVATCSPDSLIPNIASRVQQNLGIPSAAAFDLNAACTGFLYGLETATRLMQASHYRHALVIGAERLSFYLDWTKRDTAVLFGDGAGAVVLSKTEQKVGLQDAQIGCDAQGRDILAVPKFGTAMDRFDADNGYWAFDFVGKEIFKRAVRGMGAAAQQVLARSGLSTEEIDVVIPHQANIRIIQTLCDLAGIAQDKAFVNIHRYGNTSAATVPIALCEALEQGKIKPHDDLLVAAFGAGLTWGAGHIRWGERITPLGKSDAQLPSCDHTALDLLSKAIEHCKRHQSE | not soluble |
| SNAMKEKVVIITGGSSGMGKGMATRFAKEGARVVITGRTKEKLEEAKLEIEQFPGQILTVQMDVRNTDDIQKMIEQIDEKFGRIDILINNAAGNFICPAEDLSVNGWNSVINIVLNGTFYCSQAIGKYWIEKGIKGNIINMVATYAWDAGPGVIHSAAAKAGVLAMTKTLAVEWGRKYGIRVNAIAPGPIERTGGADKLWISEEMAKRTIQSVPLGRLGTPEEIAGLAYYLCSDEAAYINGTCMTMDGGQHLHQYPF | soluble |
| MAVKRPVRVLVNMDGVLADFESGLLQGFRRRFPEEPHVPLEQRRGFLANEQYGALRPDLAEKVASVYESPGFFLNLEPIPGALDALREMNDMKDTEVFICTTPLLKYDHCVGEKYRWVEQNLGPEFVERIILTRDKTVVMGDLLIDDKDNIQGLEETPSWEHILFTCCHNQHLALPPTRRRLLSWSDNWRGIIESKRASL | soluble |
| MDIRPARISDLTGMQNCNLHNLPENYQLKYYLYHAISWPMLSYVATDPKGRVVGYVLAKMEEEPKDGIPHGHITSVSVMRSYRHLGLAKRLMVQSQRAMVEVYGAKYMSLHVRKSNRAAIHLYRDTLQFDVQGIESKYYADGEDAYAMHKDFSTLKFDTPETNDELAKTVQSLALNN | soluble |
| PYKASKSRGLVVSNIYSRYDINELESGLMRVSQNKYSPDNYLFQEGQYLDKETLEKWLDRKSEKNPNGLNPESNGDGKDRKPIYLAHILEQDYLKQTDKDTVALGGISIALAMNSVDYYQKEQYGDTFEQEISDSDLLAQGKEMSGTVLNRIRQTKGLENVPVTIAIYKQGPRDAVAPGNFLTYATANGDSLSSWKDVEEKNYVLPSTESAKDHKTDNDNFLNFKKAIEDYYPNFTGVVGRARYEDGQLAELSIDIPLQFYGQAEIIGFTQYVTDLVGQHIPKTADLQVNISTSDGPAALITRKANEDAATA | not soluble |
| SHRRFRRHWLVSPSIWWHNRRILDFMPSENRLNGIDVCLNIGALERGSDCKRREERDMAGQAEQMAAELDRHGAAVFFREYPNADHGNVPFYSLTDCVEYLRKAWQR | not soluble |
| MSLKILMIMEEAEERRSLAEKFIENIKNVECFEASMGTEALFIMKKHTPDFVFLNSKLMDGTGFEYVNLLREVNCYAKFIFMGEDIEESITAFRFQAFYYLLRPFREEDLQFLLYRMGKEGHHHHHH | soluble |
| MTEVKAMTKFYDVTFQELSGRSVVKTEVASDREPFDVWQDACASYSETELNIQINEDTFVTLNRHFVVRIDVKEVDGPVDKQVRRRDELMNVVNTLSNMGL | soluble |
